{"source": "patent US20260193335A1", "about": "(ZOETIS SERVICES, published 2026)", "binders": {"B1": {"name": "mAb1 (felinized anti-IL31 antibody) S428L, feline IgG1a (antibody, part only; not given: Anti-IL31 heavy and light variable domains, part only)", "heavy, part": "ASTTAPSVFPLAPSCGTTSGATVALACLVLGYFPEPVTVSWNSGALTSGVHTFPAVLQASGLYSLSSMVTVPSSRWLSDTFTCNVAHPPSNTKVDKTVRKTDHPPGPKPCDCPKCPPPEMLGGPSIFIFPPKPKDTLSISRTPEVTCLVVDLGPDDSDVQITWFVDNTQVYTAKTSPREEQFNSTYRVVSVLPILHQDWLKGKEFKCKVNSKSLPSPIERTISKAKGQPHEPQVYVLPPAQEELSRNKVSVTCLIKSFHPPDIAVEWEITGQPEPENNYRTTPPQLDSDGTYFVYSKLSVDRSHWQRGNTYTCSVLHEALHSHHTQKSLTQSPGK"}, "B2": {"name": "mAb4 (felinized anti-IL31 antibody ZTS-5864) S428M and S434F, feline IgG1a (antibody)", "heavy": "DVQLVESGGDLVKPGGSLRLTCVASGFTFSDYAMSWVRQAPGKGLQWVAGIDSVGSGTSYADSVKGRFTISRDNAKNTLYLQMNSLKTEDTATYYCASGFPGSFEHWGQGTLVTVSSASTTAPSVFPLAPSCGTTSGATVALACLVLGYFPEPVTVSWNSGALTSGVHTFPAVLQASGLYSLSSMVTVPSSRWLSDTFTCNVAHPPSNTKVDKTVRKTDHPPGPKPCDCPKCPPPEMLGGPSIFIFPPKPKDTLSISRTPEVTCLVVDLGPDDSDVQITWFVDNTQVYTAKTSPREEQFNSTYRVVSVLPILHQDWLKGKEFKCKVNSKSLPSPIERTISKAKGQPHEPQVYVLPPAQEELSRNKVSVTCLIKSFHPPDIAVEWEITGQPEPENNYRTTPPQLDSDGTYFVYSKLSVDRSHWQRGNTYTCSVMHEALHFHHTQKSLTQSPGK", "VL": "QSVLTQPSSVSGTLGQRITISCTGSSSNIGSGYVGWYQQVPGMGPKTVIYYNSDRPSGVPDRFSGSKSGSSGTLTITGLQAEDEADYYCSVYDRTFNAVFGGGT", "notes": "also called mAb4 ID No. 33"}, "B3": {"name": "mAb4 (felinized anti-IL31 antibody ZTS-5864) S428M and S434W, feline IgG1a (antibody)", "heavy": "B2 heavy with F439W", "VL": "B2 VL", "notes": "also called mAb4 ID No. 36"}, "B4": {"name": "mAb4 (felinized anti-IL31 antibody ZTS-5864) S428P, feline IgG1a (antibody)", "heavy": "B2 heavy with M433P, F439S", "VL": "B2 VL", "notes": "also called mAb4 ID No. 14"}, "B5": {"name": "mAb4 (felinized anti-IL31 antibody ZTS-5864) S428Q, feline IgG1a (antibody)", "heavy": "B2 heavy with M433Q, F439S", "VL": "B2 VL", "notes": "also called mAb4 ID No. 15"}, "B6": {"name": "mAb4 (felinized anti-IL31 antibody ZTS-5864) S428R, feline IgG1a (antibody)", "heavy": "B2 heavy with M433R, F439S", "VL": "B2 VL", "notes": "also called mAb4 ID No. 16"}, "B7": {"name": "mAb4 (felinized anti-IL31 antibody ZTS-5864) S428T, feline IgG1a (antibody)", "heavy": "B2 heavy with M433T, F439S", "VL": "B2 VL", "notes": "also called mAb4 ID No. 17"}, "B8": {"name": "mAb4 (felinized anti-IL31 antibody ZTS-5864) S428W, feline IgG1a (antibody)", "heavy": "B2 heavy with M433W, F439S", "VL": "B2 VL", "notes": "also called mAb4 ID No. 19"}, "B9": {"name": "mAb4 (felinized anti-IL31 antibody ZTS-5864) S428Y and S434W, feline IgG1a (antibody)", "heavy": "B2 heavy with M433Y, F439W", "VL": "B2 VL", "notes": "also called mAb4 ID No. 31"}, "B10": {"name": "Anti-NGF antibody of Table 3, S434G (antibody)", "heavy": "DVQLVESGGDLVKPGGSLRLTCVASGFTYSNYWMHWVRQAPGKGLQWVARIDPYGGGTKHNEKFKRRFTISRDNAKNTLYLQMNSLKTEDTATYYCVRSGYDYYFDVWGQGTLVTVSSASTTAPSVFPLAPSCGTTSGATVALACLVLGYFPEPVTVSWNSGALTSGVHTFPAVLQASGLYSLSSMVTVPSSRWLSDTFTCNVAHPPSNTKVDKTVRKTDHPPGPKPCDCPKCPPPEMLGGPSIFIFPPKPKDTLSISRTPEVTCLVVDLGPDDSDVQITWFVDNTQVYTAKTSPREEQFNSTYRVVSVLPILHQDWLKGKEFKCKVNSKSLPSPIERTISKAKGQPHEPQVYVLPPAQEELSRNKVSVTCLIKSFHPPDIAVEWEITGQPEPENNYRTTPPQLDSDGTYFVYSKLSVDRSHWQRGNTYTCSVSHEALHGHHTQKSLTQSPGK", "light": "EIQMTQSPSSLSASPGDRVTITCRASENIYSFLAWYQQKPGKVPKLLIYNANTLAEGVPSRFSGSGSGTDFTLTISSLEPEDAATYYCQHHFGTPFTFGSGTKLEIKRSDAQPSVFLFQPSLDELHTGSASIVCILNDFYPKEVNVKWKVDGVVQNKGIQESTTEQNSKDSTYSLSSTLTMSSTEYQSHEKFSCEVTHKSLASTLVKSFQRSECQRE"}, "B11": {"name": "Anti-NGF antibody of Table 3, S434I (antibody)", "heavy": "B10 heavy with G440I", "light": "B10 light"}, "B12": {"name": "Anti-NGF antibody of Table 3, S434K (antibody)", "heavy": "B10 heavy with G440K", "light": "B10 light"}, "B13": {"name": "Anti-NGF antibody of Table 3, S434L (antibody)", "heavy": "B10 heavy with G440L", "light": "B10 light"}, "B14": {"name": "Anti-NGF antibody of Table 3, S434M (antibody)", "heavy": "B10 heavy with G440M", "light": "B10 light"}, "B15": {"name": "Anti-NGF antibody of Table 3, S434N (antibody)", "heavy": "B10 heavy with G440N", "light": "B10 light"}, "B16": {"name": "Anti-NGF antibody of Table 3, S434P (antibody)", "heavy": "B10 heavy with G440P", "light": "B10 light"}, "B17": {"name": "Anti-NGF antibody of Table 3, S434Q (antibody)", "heavy": "B10 heavy with G440Q", "light": "B10 light"}, "B18": {"name": "mAb1 (felinized anti-IL31 antibody) wild-type, feline IgG1a (antibody, part only; not given: Anti-IL31 heavy and light variable domains, part only)", "heavy, part": "B1 heavy, part with L316S"}, "B19": {"name": "mAb4 (felinized anti-IL31 antibody ZTS-5864) WT, feline IgG1a (antibody)", "heavy": "B2 heavy with M433S, F439S", "VL": "B2 VL", "notes": "The same holds for all mAb4 variants; also called mAb4 ID No. 1"}, "B20": {"name": "mAb4 (felinized anti-IL31 antibody ZTS-5864) S428L, feline IgG1a (antibody)", "heavy": "B2 heavy with M433L, F439S", "VL": "B2 VL", "notes": "also called mAb4 ID No. 11"}, "B21": {"name": "mAb4 (felinized anti-IL31 antibody ZTS-5864) S434H, feline IgG1a (antibody)", "heavy": "B2 heavy with M433S, F439H", "VL": "B2 VL", "notes": "also called mAb4 ID No. 00"}}, "note": "Where a chain is given by its changes, count along the chain named. Names may count otherwise."}
{"biological_target": "Feline FcRn (complex of FcRn-α subunit and β-microglobulin, C-terminal His tag) (feline)", "sequence (chain, as listed by the source, chain 1 of 2)": "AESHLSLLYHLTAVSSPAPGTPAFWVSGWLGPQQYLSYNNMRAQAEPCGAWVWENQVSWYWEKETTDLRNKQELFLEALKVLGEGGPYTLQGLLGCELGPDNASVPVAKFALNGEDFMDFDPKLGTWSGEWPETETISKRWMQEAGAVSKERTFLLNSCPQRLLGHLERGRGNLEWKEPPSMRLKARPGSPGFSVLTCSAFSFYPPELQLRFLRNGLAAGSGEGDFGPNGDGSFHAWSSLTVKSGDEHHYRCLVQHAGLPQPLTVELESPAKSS", "sequence (Q5MGS7 21-118, chain 2 of 2)": "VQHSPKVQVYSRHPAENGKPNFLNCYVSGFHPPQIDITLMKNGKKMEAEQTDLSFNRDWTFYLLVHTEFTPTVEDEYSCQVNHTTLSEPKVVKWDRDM", "experiment": "SPR Biacore, FcRn amine-coupled on CM5, pH 7.2", "units": {"Kd": "nM"}}
{"binder": "B1", "Kd": 180}
{"biological_target": "T1, Feline FcRn (complex of FcRn-α subunit and β-microglobulin, C-terminal His tag) (feline, UniProt A0ABI7ZNY9 23-296; Q5MGS7 21-118)", "T1 construct": "treated here as one molecule", "experiment": "SPR Biacore, biotin-FcRn on SA chip, pH 7.4", "experimental": "(§1) Feline FcRn was isolated, prepared and mutant Fc IgGs were assayed against feline FcRn according to Strietzel et. al., discussed above. Standard PCR was used to amplify feline FcRn-α subunit and β-microglobulin. FcRn-α subunit and β-microglobulin were co-transfected into HEK 293 cells and the FcRn complex was purified by IMAC affinity purification via the c-terminal His tag. FcRn complex was biotin labeled through BirA enzymatic biotinylatoin reaction. KD's were measured by Biacore T200 (GE Healthcare, Pittsburgh, PA, USA) or Biacore 8K (Cytiva, Marlborough, MA, USA) using a SA sensor chip.\n(§2) FcRn was captured on the surface of the sensor using a modified SA capture method. 10 mM MES; 150 mM NaCl; 0.005% Tween20; 0.5 mg/mL BSA; pH6 was used as capture, method running buffer and titrations. 1×HBS-P, 0.5 mg/mL BSA; pH7.4 was also used for method running buffer and titrations. Fc mutant IgGs were flowed over receptor surfaces and affinity was determined using T200 evaluation software or Biacore Insight Evaluation software. Blank runs containing buffer only were subtracted out from all runs. Flow cells were regenerated using 50 mM Tris pH8 or pH9. Runs were performed at 15° C.", "units": {"Kd": "nM"}}
{"binder": "B2", "Kd": 4010}
{"binder": "B3", "Kd": 5010}
{"binder": "B4", "binding result": "no binding"}
{"binder": "B5", "binding result": "no binding"}
{"binder": "B6", "binding result": "no binding"}
{"binder": "B7", "binding result": "no binding"}
{"binder": "B8", "binding result": "no binding"}
{"binder": "B9", "Kd": 431}
{"biological_target": "T1, Feline FcRn (complex of FcRn-α subunit …)", "experiment": "SPR Biacore, FcRn amine-coupled on CM5, pH 7.2", "experimental": "(§3) Feline FcRn was isolated, prepared and mutant Fc IgGs were assayed against feline FcRn according to Strietzelg et. al. Standard RACE PCR was used to amplify feline FcRn-α subunit and β-microglobulin. FcRn-α subunit and β-microglobulin were co-transfected into HEK 293 cells and the FcRn complex was purified by IMAC affinity purification via the c-terminal His tag. KD's were measured by Biacore 3000 or Biacore T200 (GE Healthcare, Pittsburgh, PA, USA) using a CM5 sensor chip.\n(§4) FcRn was immobilized on the surface of the sensor using the standard amine immobilization method to reach the desired surface density. HBS-EP was used as the immobilization running buffer and 10 mM MES; 150 mM NaCl; 0.005% Tween20; 0.5 mg/mL BSA; pH6 and pH7.2 and PBS; 0.005% Tween20; 0.5 mg/mL BSA; pH7.4 were used for method running buffers and titrations. Fc mutant IgGs were flowed over receptor surfaces and affinity was determined using Scrubber2 software analysis (BioLogic Software Pty, Ltd., Campbell, Australia) or T200 evaluation software (Table 2). Blank runs containing buffer only were subtracted out from all runs. Flow cells were regenerated using 50 mM Tris pH8. Runs were performed at 15° C.", "units": {"Kd": "nM"}}
{"binder": "B10", "Kd": 21.6}
{"binder": "B11", "Kd": 18.1}
{"binder": "B12", "Kd": 5.06}
{"binder": "B13", "Kd": 6.57}
{"binder": "B14", "Kd": 1.92}
{"binder": "B15", "Kd": 0.00847}
{"binder": "B16", "Kd": 0.0157}
{"binder": "B17", "Kd": 0.0801}
{"biological_target": "T1, Feline FcRn (complex of FcRn-α subunit …)", "experiment": "SPR Biacore, biotin-FcRn on SA chip, pH 6", "how_it_was_run": "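Feline FcRn α/β-microglobulin complex, expressed in HEK 293 cells, His-tag purified and BirA-biotinylated, was captured on an SA chip. Fc mutant IgGs flowed over at 15° C in MES/NaCl/Tween20/BSA at pH 6, or HBS-P/BSA at pH 7.4. KD from buffer-blank-subtracted runs; regeneration with 50 mM Tris pH 8 or 9.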", "units": {"Kd": "nM"}}
{"binder": "B2", "Kd": 4.29}
{"binder": "B3", "Kd": 6.83}
{"binder": "B9", "Kd": 7.8}
{"biological_target": "Feline FcRn (complex of FcRn-α subunit and β-microglobulin, C-terminal His tag) (feline)", "experiment": "SPR Biacore, FcRn amine-coupled on CM5, pH 6", "units": {"Kd": "nM"}}
{"binder": "B18", "Kd": 12.1}
{"binder": "B1", "Kd": 3.77}
{"biological_target": "T1, Feline FcRn (complex of FcRn-α subunit …)", "experiment": "SPR Biacore, biotin-FcRn on SA chip, pH 6; pH 6", "experimental": "as §1, §2", "units": {"Kd": "nM"}}
{"binder": "B19", "Kd": 32}
{"binder": "B20", "Kd": 15.5}
{"binder": "B21", "Kd": 4.88}
{"biological_target": "T1, Feline FcRn (complex of FcRn-α subunit …)", "experiment": "SPR Biacore, FcRn amine-coupled on CM5, pH 6", "experimental": "as §3, §4", "units": {"Kd": "nM"}}
{"binder": "B10", "Kd": 9.58}
{"binder": "B11", "Kd": 14.4}
{"binder": "B12", "Kd": 6.76}
{"binder": "B13", "Kd": 8.67}
{"binder": "B14", "Kd": 2.8}
{"binder": "B15", "Kd": 6.94}
{"binder": "B16", "Kd": 5.64}
{"binder": "B17", "Kd": 4.8}
{"biological_target": "IL31 (target of felinized anti-IL31 antibody mAb1)", "experiment": "SPR Biacore T200, target amine-coupled, 15 C", "units": {"Kd": "nM"}}
{"binder": "B18", "Kd": 0.0223}
{"binder": "B1", "Kd": 0.0228}
